Two molecules from patent US20240400715A1 (VIBRANT PHARMA, published 2024) can be followed below.

For test [1], the target named is T1, human CD3 on Jurkat cells (human, UniProt P07766 23-207; P04234 22-171; P09693 23-182).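 Further: flow cytometric binding of bispecific antibodies to Jurkat T cells, threefold serial dilutions incubated half an hour in the cold, EC50 taken from the fitted binding curve.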
T1 construct: whole, on cells; CD3 complex as on Jurkat (Clone E6-1) cells; also called CD3 expressing cells (Jurkat)
Briefly: FACS, Jurkat cells. (In general: Flow cytometry measures light scatter and fluorescence of single cells or particles in a stream.)

In test [2] the target is T2, human CD3ε/δ (ACRO systems, CDD-H52W1) (human, UniProt P07766 23-126; P04234 22-105).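 Further: bispecific antibodies captured on AHIC biosensors to a 1.5 nm loading signal, in PBST with 0.02% detergent.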
T2 construct: Bought protein; also called human CD3ϵ/CD3δ; human CD3 epsilon/delta antigen
In words: BLI, antibody captured, antigen in solution. (In general: Biolayer interferometry detects binding as a change in optical thickness at a sensor tip.)
Protocol: The bispecific antibodies were diluted to 5 ag/ml, and 1.5 nm protein was coupled to the surface of the AHIC sensor chip through 0.02% PBST.

Several values for one entry are separate records, joined by “and”; a condition that tells them apart may be missing. Equal entries are not always repeated.

B1: CEA-Fab-Knob-+Hole (203) (bispecific antibody, human IgG4 S228P, kappa, F234A L235A)
heavy: EVKLLESGGGLVQPKGSLKLSCAASGFTFNTYAMNWVRQAPGKGLEWVARIRSKYNNYATYYADSVKDRFTISRDDSQSILYLQMNNLKTEDTAMYYCVRHGNFGNSYVSWFAYWGQGTLVTVSSASTKGPSVFPLAPCSRSTSESTAALGCLVKDYFPEPVTVSWNSGALTSGVHTFPAVLQSSGLYSLSSVVTVPSSSLGTKTYTCNVDHKPSNTKVDKRVESKYGPPCPPCPAPEAAGGPSVFLFPPKPKDTLMISRTPEVTCVVVDVSQEDPEVQFNWYVDGVEVHNAKTKPREEQFNSTYRVVSVLTVLHQDWLNGKEYKCKVSNKGLPSSIEKTISKAKGQPREPQVYTLPPCQEEMTKNQVSLWCLVKGFYPSDIAVEWESNGQPENNYKTTPPVLDSDGSFFLYSRLTVDKSRWQEGNVFSCSVMHEALHNHYTQKSLSLSL
chain: ESKYGPPCPPCPAPEAAGGPSVFLFPPKPKDTLMISRTPEVTCVVVDVSQEDPEVQFNWYVDGVEVHNAKTKPREEQFNSTYRVVSVLTVLHQDWLNGKEYKCKVSNKGLPSSIEKTISKAKGQPREPQVCTLPPSQEEMTKNQVSLSCAVKGFYPSDIAVEWESNGQPENNYKTTPPVLDSDGSFFLVSRLTVDKSRWQEGNVFSCSVMHEALHNRFTQKSLSLSL
light: EVQLVESGGGFVQAGESLTLSCTSSTLTFTPYRMAWYRQAPGKQRDLVADISSGDGRTTNYADFAKGRFTISRDNIKNTVFLRMTNLKPEDTAVYYCNTFVSFVGIARSWGQGTQVTVSSGGGGSGGGGSQAVVTQESALTTSPGETVTLTCRSSTGAVTTSNYANWVQEKPDHLFTGLIGGTNKRAPGVPARFSGSLIGDKAALTITGAQTEDEAIYFCALWYSNLWVFGGGTKVEIKRTVAAPSVFIFPPSDEQLKSGTASVVCLLNNFYPREAKVQWKVDNALQSGNSQESVTEQDSKDSTYSLSSTLTLSKADYEKHKVYACEVTHQGLSSPVTKSFNRGEC
notes: VHH linked to the VL of the Fab; human IgG4 knob-into-hole Fc
Consider B1, for which the EC50 in test [1] is 0.29 µg/mL and 2.23 nM. Also, in test [2], the affinity, expressed as Kd, was 2.51 nM; the koff came out at 0.000621 s⁻¹; the kon was found to be 248000 M⁻¹ s⁻¹.

B2: CEA-Knob+Fab-Hole (104) (bispecific antibody, human IgG4 S228P, kappa, F234A L235A)
chain: EVQLVESGGGFVQAGESLTLSCTSSTLTFTPYRMAWYRQAPGKQRDLVADISSGDGRTTNYADFAKGRFTISRDNIKNTVFLRMTNLKPEDTAVYYCNTFVSFVGIARSWGQGTQVTVSSESKYGPPCPPCPAPEAAGGPSVFLFPPKPKDTLMISRTPEVTCVVVDVSQEDPEVQFNWYVDGVEVHNAKTKPREEQFNSTYRVVSVLTVLHQDWLNGKEYKCKVSNKGLPSSIEKTISKAKGQPREPQVYTLPPCQEEMTKNQVSLWCLVKGFYPSDIAVEWESNGQPENNYKTTPPVLDSDGSFFLYSRLTVDKSRWQEGNVFSCSVMHEALHNHYTQKSLSLSL
heavy: EVKLLESGGGLVQPKGSLKLSCAASGFTFNTYAMNWVRQAPGKGLEWVARIRSKYNNYATYYADSVKDRFTISRDDSQSILYLQMNNLKTEDTAMYYCVRHGNFGNSYVSWFAYWGQGTLVTVSSASTKGPSVFPLAPCSRSTSESTAALGCLVKDYFPEPVTVSWNSGALTSGVHTFPAVLQSSGLYSLSSVVTVPSSSLGTKTYTCNVDHKPSNTKVDKRVESKYGPPCPPCPAPEAAGGPSVFLFPPKPKDTLMISRTPEVTCVVVDVSQEDPEVQFNWYVDGVEVHNAKTKPREEQFNSTYRVVSVLTVLHQDWLNGKEYKCKVSNKGLPSSIEKTISKAKGQPREPQVCTLPPSQEEMTKNQVSLSCAVKGFYPSDIAVEWESNGQPENNYKTTPPVLDSDGSFFLVSRLTVDKSRWQEGNVFSCSVMHEALHNRFTQKSLSLSL
light: QAVVTQESALTTSPGETVTLTCRSSTGAVTTSNYANWVQEKPDHLFTGLIGGTNKRAPGVPARFSGSLIGDKAALTITGAQTEDEAIYFCALWYSNLWVFGGGTKVEIKRTVAAPSVFIFPPSDEQLKSGTASVVCLLNNFYPREAKVQWKVDNALQSGNSQESVTEQDSKDSTYSLSSTLTLSKADYEKHKVYACEVTHQGLSSPVTKSFNRGEC
notes: Anti-CD3 TA1 Fab + anti-CEA VHH C17 on human IgG4 knob-into-hole Fc
Take B2: the half-maximal effective concentration (EC50) in test [1] is 3.35 µg/mL and 25.8 nM. Further, in test [2], binding was put at a Kd of 0.839 nM, the dissociation rate constant (koff) is 0.0003 s⁻¹ and the kon is 357000 M⁻¹ s⁻¹.

For orientation: EC50 means the concentration that produces a half-maximal response. A higher EC50 goes with a less potent agent. The Kd is the concentration at which binding is half-saturated. A high value points to weaker binding. A word on the koff: it is a measure of how fast the partners let go of each other. Usually kon stands for a measure of how fast the partners come together. Low readings indicate slow association, high ones fast association.
